± gives the standard error. Variants at the floor of the assay were thinned out.
B1: glmS ribozyme (parent)
chain: AUAAAAGCGCCAGAACUACAGAAAUGUAGUUGACGAGGAGGAGGUUUAUCGAAUUUUCGGCGGAUGCCUCCAAA

Variants of: B1
Test: self-cleavage kobs at 2500 uM GlcN6P; higher = faster cleavage; RNA array
Details: with glucosamine-6-phosphate
In short: (§1)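 Over ~14 h at 37 °C, tiles were imaged as glucosamine-6-phosphate (40 μM to 10 mM) in HEPES/KCl/Mg(OAc)2 buffer flowed across sequenced MiSeq chips. The chips carried barcoded ribozyme variants transcribed in situ by E. coli RNA polymerase and tracked with a hybridised Cy3 probe. After normalisation to baseline and to non-cleaving reference variants, one- or two-exponential decay fits of per-tile medians gave kobs. kcat and KM followed from weighted Michaelis–Menten fits across concentrations.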

| Variant | self-cleavage kobs at 2500 uM GlcN6P |
| --- | --- |
| G13U U47C A64G | 0.000125 ± 3.1e-05 s⁻¹ |
| G35C C68U C71A | < 1e-05 s⁻¹ |
| A14C A39U G43U A64U | < 1e-05 s⁻¹ |
| U31G A36C G38A G40A | < 1e-05 s⁻¹ |
| C8U C11G C58A | < 1e-05 s⁻¹ |
| C11A A33C A53C A64C | < 1e-05 s⁻¹ |
| G41A A52C C67G C71A | < 1e-05 s⁻¹ |
| C8U C34G U69G | 8.61e-05 ± 2.2e-05 s⁻¹ |
| G29A U65C | 6.71e-05 ± 1.9e-05 s⁻¹ |
| A14G G37C A39G | 6.41e-05 ± 1.9e-05 s⁻¹ |
| C11A U47G C61G | < 1e-05 s⁻¹ |
| A33U G35C G62A | < 1e-05 s⁻¹ |
| G13A G51C C67G | < 1e-05 s⁻¹ |
| G7C C11U U54A | < 1e-05 s⁻¹ |
| G40C G43A A48U A64C U69A | < 1e-05 s⁻¹ |
| U30A U31A U57A C71U | 0.000133 ± 3.1e-05 s⁻¹ |
| A6U U45G A48U | < 1e-05 s⁻¹ |
| C58G C67A C70U C71U | 7.14e-05 ± 2.7e-05 s⁻¹ |
| A15C U47G C68G | 5.59e-05 ± 1.6e-05 s⁻¹ |
| G37A A53U G66U | 8.93e-05 ± 3.4e-05 s⁻¹ |
| A36C G44A C70A | < 1e-05 s⁻¹ |
| G13A A15C C50G C70A | 0.000129 ± 2.5e-05 s⁻¹ |
| G26U U65A | 0.00219 ± 0.00042 s⁻¹ |
| G35U U47A C61A | < 1e-05 s⁻¹ |
| G29U A42C C61A | < 1e-05 s⁻¹ |
| G7C G51U G66A C67U C68U | < 1e-05 s⁻¹ |

| Variant | self-cleavage kobs at 2500 uM GlcN6P |
| --- | --- |
| A15C G43U C67A | 0.000235 ± 7.7e-05 s⁻¹ |
| A14C U31A U54C U57A | 0.000121 ± 3.3e-05 s⁻¹ |
| A15G G35C A64G | < 1e-05 s⁻¹ |
| G43C U46G C58A | < 1e-05 s⁻¹ |
| C8A U57C C70G C71U | < 1e-05 s⁻¹ |
| G9U G29A G63A | < 1e-05 s⁻¹ |
| C16U U46G U47C C70U | 0.00139 ± 0.00038 s⁻¹ |
| C10G C16G G35A A53U A64C | < 1e-05 s⁻¹ |
| A15G G44C | 0.00014 ± 4.2e-05 s⁻¹ |
| G7U G32C U54A | < 1e-05 s⁻¹ |
| C16G A36U A48G C58A | < 1e-05 s⁻¹ |
| G43A G66C C71A | < 1e-05 s⁻¹ |
| G35C A52C C58U | < 1e-05 s⁻¹ |
| U30G U46C C50A A64C | < 1e-05 s⁻¹ |
| A33U A48G U55G | < 1e-05 s⁻¹ |
| C8A C16U U56A | < 1e-05 s⁻¹ |
| C11A A33C A36G U46G G51A G62A | < 1e-05 s⁻¹ |
| C10U C11A A12G G41C | < 1e-05 s⁻¹ |
| C34U C68U | < 1e-05 s⁻¹ |
| A12C A36U U46G | < 1e-05 s⁻¹ |
| A15U G35C G38U U47G U69G | < 1e-05 s⁻¹ |
| U30C G38C U46C | < 1e-05 s⁻¹ |
| G7U U57G G60U | < 1e-05 s⁻¹ |
| G29A G37U U57C | < 1e-05 s⁻¹ |
| A12G G44U G59C G60C | < 1e-05 s⁻¹ |
| A12G G32U G40U | 0.000317 ± 0.00011 s⁻¹ |

| Variant | self-cleavage kobs at 2500 uM GlcN6P |
| --- | --- |
| A12G G38C U45A C67A | < 1e-05 s⁻¹ |
| G32U A42U C68A | < 1e-05 s⁻¹ |
| C8G A14U A42U | < 1e-05 s⁻¹ |
| C16U G51U A52C C68A C70U C71U | < 1e-05 s⁻¹ |
| C8A A42C A64G | < 1e-05 s⁻¹ |
| C10U A33G G35U U47A G59C | < 1e-05 s⁻¹ |
| A33C G35U A42G A48G | < 1e-05 s⁻¹ |
| G9U G29U G35U G38C U45G U49A | < 1e-05 s⁻¹ |
| G37A A39C G63U | < 1e-05 s⁻¹ |
| A6C G7C G41A | < 1e-05 s⁻¹ |
| G13A A14U A53U U54C G60A | < 1e-05 s⁻¹ |
| A39G G44A | 0.00105 ± 0.00035 s⁻¹ |
| C10U A52U A53U U55C U65G | < 1e-05 s⁻¹ |
| G37A G41A C61U | < 1e-05 s⁻¹ |
| A12C C16U C50U | 3.9e-05 ± 1.5e-05 s⁻¹ |
| A12G G59C C67U | 4.19e-05 ± 1.9e-05 s⁻¹ |
| A36C G40U U55A U56G C70G | < 1e-05 s⁻¹ |
| C11U U30C A39G A42G | 0.000103 ± 3.7e-05 s⁻¹ |
| A14U U30A A39C | 2.93e-05 ± 1.5e-05 s⁻¹ |
| G7U G9A G29A A39G | < 1e-05 s⁻¹ |
| C11U C16G G32A A42U C70U | < 1e-05 s⁻¹ |
| G7A G29C G38A G44C | < 1e-05 s⁻¹ |
| A24C G40U | 0.00193 ± 0.0007 s⁻¹ |
| A15G G38U G60A | < 1e-05 s⁻¹ |
| A15U G29A G35U G37A U54A | < 1e-05 s⁻¹ |
| A12U U54A C58U | 4.04e-05 ± 1.6e-05 s⁻¹ |

Variants of: B1
Test: self-cleavage kobs at 10000 uM GlcN6P; higher = faster cleavage; RNA array
Details: with glucosamine-6-phosphate
In short: as §1

| Variant | self-cleavage kobs at 10000 uM GlcN6P |
| --- | --- |
| C11A A33C A53C A64C | < 1e-05 s⁻¹ |
| G29A U65C | 8.99e-05 ± 3.1e-05 s⁻¹ |
| G29U A42C C61A | < 1e-05 s⁻¹ |
| A14C U31A U54C U57A | 9.39e-05 ± 1.9e-05 s⁻¹ |
| A15G G44C | 0.000166 ± 3.2e-05 s⁻¹ |
| G35C A52C C58U | < 1e-05 s⁻¹ |
| A15U G35C G38U U47G U69G | 0.000954 ± 0.0003 s⁻¹ |
| A39G G44A | 0.000926 ± 0.00033 s⁻¹ |
| G7A G29C G38A G44C | < 1e-05 s⁻¹ |
| A12U U54A C58U | 6.78e-05 ± 1.3e-05 s⁻¹ |

From the supplement of paper PMC7125110
